From PMC11480844 (2024)

B1: H2-Kb / Ed9 (parent complex)
chain 1: AQSVTQPDARVTVSEGASLQLRCKYSYFGTPYLFWYVQYPRQGLQLLLKYYPGDPVVQGVNGFEAEFSKSNSSFHLRKASVHWSDWAVYFCAVSITGGYKVVFGSGTRLLVSP
chain 2: DSGVVQSPRHIIKEKGGRSVLTCIPISGHSNVVWYQQTLGKELKFLIQHYEKVERDKGFLPSRFSVQQFDDYHSEMNMSALELEDSAMYFCASSPRQSDYTFGSGTRLLVI
chain 3: not shown
chain 4: IQKTPQIQVYSRHPPENGKPNILNCYVTQFHPPHIEIQMLKNGKKIPKVEMSDMSFSKDWSFYILAHTEFTPTETDTYACRVKHDSMAEPKTVYWDRDM
chain 5: SIINFEKL
B2: H2-Kb / Ed23 (parent complex)
chain 1: QQKVQQSPESLTVSEGAMASLNCTFSDRSSDNFRWYRQHSGKGLEVLVSIFSDGEKEEGSFTAHLNRASLHVFLHIREPQPSDSALYLCAVRGFWTNKVVFGTGTRLQVLP
chain 2: AQTIHQWPVAEIKAVGSPLSLGCTIKGKSSPNLYWYWQATGGTLQQLFYSITVGQVESVVQLNLSASRPKDDQFILSTEKLLLSHSGFYLCAWSPRQSSYEQYFGPGTRLTVL
chain 3: not shown
chain 4: B1 chain 4
chain 5: SIINFEKL

Variants of: B1
Assay: % of reporter cells activated (NFAT-GFP), raw
Further: test concentration or dose not given here.

Row | ratio to parent | Variant
1 | 0.0945 | chain 5 E6Y
2 | 0.82 | chain 5 I2Q
3 | 1.13 | chain 5 I2F
4 | 1.15 | chain 5 F5N
5 | 1.03 | chain 5 F5E
6 | 1.22 | chain 5 F5Y
7 | 1.31 | chain 5 F5S
8 | 1.23 | chain 5 L8Y
9 | 1 | chain 5 L8G
10 | 0.883 | chain 5 L8N
11 | 1.09 | chain 5 L8K
12 | 1.09 | chain 5 L8T
13 | 1.17 | chain 5 L8I
14 | 0.899 | chain 5 L8S
15 | 1 | chain 5 L8W
16 | 1.14 | chain 5 L8F

Row | ratio to parent | Variant
17 | 0.184 | chain 5 I3A
18 | 0.0606 | chain 5 I3Y
19 | 0.0373 | chain 5 S1P
20 | 0.0106 | chain 5 S1I
21 | 0.125 | chain 5 S1D
22 | 0.0112 | chain 5 S1V
23 | 0.226 | chain 5 K7E
24 | 0.546 | chain 5 K7M
25 | 0.957 | chain 5 K7T
26 | 0.00953 | chain 5 N4E
27 | 0.0308 | chain 5 N4V
28 | 0.0154 | chain 5 N4S
29 | 0.012 | chain 5 N4F
30 | 0.0077 | chain 5 N4A
31 | 0.0236 | chain 5 N4Q
32 | 0.0766 | chain 5 N4P

Variants of: B2
Assay: % of reporter cells activated (NFAT-GFP), raw

Row | ratio to parent | Variant
33 | 1.24 | chain 5 L8Y
34 | 1.23 | chain 5 L8K
35 | 1.06 | chain 5 L8C
36 | 0.856 | chain 5 L8V
37 | 1.21 | chain 5 L8Q
38 | 1.05 | chain 5 L8N
39 | 1.11 | chain 5 L8G
40 | 1.26 | chain 5 L8R
41 | 1.13 | chain 5 L8F
42 | 1.24 | chain 5 L8P
43 | 1.15 | chain 5 L8I
44 | 0.934 | chain 5 L8W
45 | 1.22 | chain 5 N4R
46 | 1.04 | chain 5 N4H
47 | 0.207 | chain 5 N4V
48 | 0.813 | chain 5 N4Y
49 | 1.13 | chain 5 N4W
50 | 0.42 | chain 5 N4S
51 | 0.277 | chain 5 N4I
52 | 0.0424 | chain 5 N4D
53 | 0.269 | chain 5 N4M
54 | 0.869 | chain 5 N4K
55 | 0.342 | chain 5 N4T
56 | 0.415 | chain 5 N4E

Row | ratio to parent | Variant
57 | 0.586 | chain 5 N4F
58 | 0.18 | chain 5 N4A
59 | 1.08 | chain 5 F5W
60 | 1.15 | chain 5 F5M
61 | 0.864 | chain 5 F5P
62 | 1.32 | chain 5 F5Y
63 | 1.37 | chain 5 F5H
64 | 0.997 | chain 5 F5D
65 | 1.28 | chain 5 F5N
66 | 1.25 | chain 5 F5I
67 | 1.36 | chain 5 F5A
68 | 0.894 | chain 5 F5G
69 | 1.28 | chain 5 F5R
70 | 1.33 | chain 5 F5T
71 | 1.3 | chain 5 F5C
72 | 1.33 | chain 5 F5V
73 | 1.19 | chain 5 F5K
74 | 0.937 | chain 5 F5E
75 | 1.19 | chain 5 F5S
76 | 1.36 | chain 5 I2H
77 | 1.07 | chain 5 I2W
78 | 1.21 | chain 5 I2F
79 | 1.38 | chain 5 I2C
80 | 1.39 | chain 5 I2Q

Row | ratio to parent | Variant
81 | 0.96 | chain 5 I2Y
82 | 1.49 | chain 5 I2L
83 | 1.39 | chain 5 I2E
84 | 1.42 | chain 5 I2V
85 | 1.12 | chain 5 I2S
86 | 1.49 | chain 5 I2N
87 | 1.46 | chain 5 I2M
88 | 1.31 | chain 5 I2D
89 | 1.54 | chain 5 I2K
90 | 1.3 | chain 5 I2A
91 | 1.38 | chain 5 I2P
92 | 1.72 | chain 5 I2R
93 | 0.952 | chain 5 I2G
94 | 1.4 | chain 5 I3L
95 | 0.768 | chain 5 I3D
96 | 1.23 | chain 5 I3S
97 | 1.41 | chain 5 I3V
98 | 0.952 | chain 5 I3K
99 | 1.06 | chain 5 I3A
100 | 0.17 | chain 5 I3Y
101 | 0.975 | chain 5 I3W
102 | 0.636 | chain 5 I3R
103 | 1.04 | chain 5 I3G
104 | 1.22 | chain 5 I3Q

Row | ratio to parent | Variant
105 | 0.886 | chain 5 S1Y
106 | 0.207 | chain 5 S1F
107 | 1.12 | chain 5 S1V
108 | 0.722 | chain 5 S1C
109 | 1.26 | chain 5 S1A
110 | 1.46 | chain 5 S1P
111 | 0.896 | chain 5 S1G
112 | 1.64 | chain 5 S1T
113 | 0.27 | chain 5 S1N
114 | 1.01 | chain 5 S1R
115 | 0.558 | chain 5 S1K
116 | 0.735 | chain 5 S1D
117 | 0.218 | chain 5 S1I
118 | 0.523 | chain 5 S1H
119 | 0.333 | chain 5 K7H
120 | 1.42 | chain 5 K7R
121 | 0.145 | chain 5 K7T
122 | 1.18 | chain 5 K7G
123 | 0.785 | chain 5 K7N
124 | 0.598 | chain 5 K7A
125 | 0.477 | chain 5 K7L
126 | 0.48 | chain 5 K7V
127 | 0.798 | chain 5 K7P
128 | 0.0793 | chain 5 K7F

Row | ratio to parent | Variant
129 | 1.12 | chain 5 K7M
130 | 0.975 | chain 5 K7W
131 | 0.919 | chain 5 K7C
132 | 1 | chain 5 K7S
133 | 0.551 | chain 5 E6H
134 | 1.28 | chain 5 E6G
135 | 0.588 | chain 5 E6Y
136 | 1.14 | chain 5 E6K
137 | 0.604 | chain 5 E6Q
138 | 0.0503 | chain 5 E6W
139 | 0.157 | chain 5 E6A
140 | 0.486 | chain 5 E6M
141 | 0.828 | chain 5 E6D
142 | 0.0439 | chain 5 E6P
143 | 0.0247 | chain 5 E6L
144 | 0.0348 | chain 5 E6N
145 | 0.147 | chain 5 E6F
146 | 0.0871 | chain 5 E6S
147 | 0.0859 | chain 5 E6V
148 | 0.0505 | chain 5 E6T
149 | 0.316 | chain 5 E6R
150 | 0.0187 | chain 5 E6I
